The target in this series is Hfq (Escherichia coli, UniProt P0A6X3 1-102). The experiment in a line: EMSA; 25 uM Hfq with 0.5-4 uM FAM-rA30, no polyP; Condensates: 20 mM HEPES pH 7.0, 50 mM NaCl, no crowder; EMSA buffer and temperature not given in the material. To be noted: protein: recombinant; chain copies: 6; label: FAM (5' as printed FAM-(rA)30); single strand.
Sequence of Hfq (P0A6X3 whole entry): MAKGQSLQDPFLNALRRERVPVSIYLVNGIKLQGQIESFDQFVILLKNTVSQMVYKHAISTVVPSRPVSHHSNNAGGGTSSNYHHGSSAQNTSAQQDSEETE

For the molecule AAAAAAAAAAAAAAAAAAAAAAAAAAAAAA (ssRNA) [FAM-rA30], the binding result is reported as “binds”.
